# ± gives the standard deviation.
# Assay: protein stability index of a GFP-peptide fusion (GPS, HEK-293T) (PSI 1-6); higher = more stable
# Details: c terminus: a fixed tail appended
# 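Further: 24-mer peptide tiles fused after GFP, lentivirally expressed, FACS-sorted into six equal bins by GFP/DsRed ratio, decoded by Illumina sequencing, PSI is the read-weighted mean bin number.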
sequence,measurement,setting,value
TGERPHQCIECGKSFNRHCNLIRH [ZSCAN9],protein stability index,treatment: DMSO,3.13 ± 0.17
same,protein stability index,"treatment: MLN4924 1 uM, 8 h",3.35 ± 0.38
QLGRALTAHLYSLLQTQHALGDAF [ARFIP2],protein stability index,treatment: DMSO,3.25 ± 0.2
same,protein stability index,"treatment: MLN4924 1 uM, 8 h",3.47 ± 0.57
NVSTKEGIHLALVELLKNLTKYPT [INTS4],protein stability index,treatment: DMSO,2.53 ± 0.36
same,protein stability index,"treatment: MLN4924 1 uM, 8 h",2.5 ± 0.25
LLCVNYFFYGETVTDYFFTLVQRE [CDS2],protein stability index,treatment: DMSO,2.9 ± 0.36
same,protein stability index,"treatment: MLN4924 1 uM, 8 h",3.2 ± 0.41
LRGALQQGEAFQRALESELQQLRA [PBXIP1],protein stability index,treatment: DMSO,3.56 ± 0.24
same,protein stability index,"treatment: MLN4924 1 uM, 8 h",3.67 ± 0.23
LEKKNEALKERADSLAKEIQYLKD [ATF4],protein stability index,treatment: DMSO,4.53 ± 0.24
same,protein stability index,"treatment: MLN4924 1 uM, 8 h",4.45 ± 0.056
PFSSSSPENVEDSGLDSPSHAAPG [FCHO1],protein stability index,treatment: DMSO,5.5 ± 0.19
same,protein stability index,"treatment: MLN4924 1 uM, 8 h",5.4 ± 0.39
LRESIASYLSLTSEDNTSFDRKKK [SLA],protein stability index,treatment: DMSO,3.9 ± 0.16
same,protein stability index,"treatment: MLN4924 1 uM, 8 h",3.81 ± 0.15
TILPQEIQSRVQELHPESGEEAVT [ZNF263],protein stability index,treatment: DMSO,5.11 ± 0.25
same,protein stability index,"treatment: MLN4924 1 uM, 8 h",5.33 ± 0.28
QGPGGDEDDDEEDTDKLLNSASDP [PSD2],protein stability index,treatment: DMSO,5.59 ± 0.26
same,protein stability index,"treatment: MLN4924 1 uM, 8 h",5.54 ± 0.21
SPFTNLLNGSSQPTTRNYPELNNN [CDC14A],protein stability index,treatment: DMSO,4.04 ± 0.1
same,protein stability index,"treatment: MLN4924 1 uM, 8 h",4.26 ± 0.16
ISDNPERYSTNLSNHVDDFTTFRG [EDNRA],protein stability index,treatment: DMSO,3.87 ± 0.34
same,protein stability index,"treatment: MLN4924 1 uM, 8 h",3.95 ± 0.42
LLAEREQEEAIAQFPYVEFTGRDS [TMEM106C],protein stability index,treatment: DMSO,4.6 ± 0.27
same,protein stability index,"treatment: MLN4924 1 uM, 8 h",4.72 ± 0.13
PTPTSLEVSSPPDTTEEVDHKPKL [PDZK1],protein stability index,treatment: DMSO,5.51 ± 0.18
same,protein stability index,"treatment: MLN4924 1 uM, 8 h",5.54 ± 0.38
IAGNKCDLIDVREVMERDAKDYAD [RAB22A],protein stability index,treatment: DMSO,4.98 ± 0.22
same,protein stability index,"treatment: MLN4924 1 uM, 8 h",5.06 ± 0.11
HLEIDDMYTPAYGDFDFDEVKFPN [MYORG],protein stability index,treatment: DMSO,4.49 ± 0.12
same,protein stability index,"treatment: MLN4924 1 uM, 8 h",4.26 ± 0.19
PILKVQYHPRDQNKVLVCPMKSAP [RBBP5],protein stability index,treatment: DMSO,2.99 ± 0.17
same,protein stability index,"treatment: MLN4924 1 uM, 8 h",3.13 ± 0.14
TKILQERAVLGANDPEKNFLTTAI [NSDHL],protein stability index,treatment: DMSO,3.53 ± 0.14
same,protein stability index,"treatment: MLN4924 1 uM, 8 h",3.38 ± 0.13
LCSDLEEAPEAELSQAPAEGPDLV [HES6],protein stability index,treatment: DMSO,5.61 ± 0.12
same,protein stability index,"treatment: MLN4924 1 uM, 8 h",5.57 ± 0.3
KKSELLQRITQEQEKKLSFIEALI [TRIM63],protein stability index,treatment: DMSO,2.07 ± 0.3
same,protein stability index,"treatment: MLN4924 1 uM, 8 h",2.41 ± 0.35
KVVLIGDSGVGKSNLLSRFTRNEF [RAB11A],protein stability index,treatment: DMSO,2.33 ± 0.19
same,protein stability index,"treatment: MLN4924 1 uM, 8 h",2.28 ± 0.39
WLDNPERWNKVKMVVSREEVELAY [SEPHS2],protein stability index,treatment: DMSO,2.87 ± 0.31
same,protein stability index,"treatment: MLN4924 1 uM, 8 h",2.46 ± 0.31
YEENEGAGPYLLNGSYLELSSDRV [ADAMTSL2],protein stability index,treatment: DMSO,3.88 ± 0.33
same,protein stability index,"treatment: MLN4924 1 uM, 8 h",4.07 ± 0.46
QARAELTAQHQRRLAAIAQEKDQE [FBF1],protein stability index,treatment: DMSO,5.43 ± 0.23
same,protein stability index,"treatment: MLN4924 1 uM, 8 h",5.2 ± 0.49
SSPSVSGPRRLVSCLSSQSSALSQ [SPACA3],protein stability index,treatment: DMSO,3.4 ± 0.27
same,protein stability index,"treatment: MLN4924 1 uM, 8 h",3.52 ± 0.35
EGTFRPERLLAVAERYGLSGSDVL [RAD51],protein stability index,treatment: DMSO,3.23 ± 0.18
same,protein stability index,"treatment: MLN4924 1 uM, 8 h",3.45 ± 0.11
LPQPLAAHAGAVHNGKIYISGGVH [KLHL14],protein stability index,treatment: DMSO,3.17 ± 0.24
same,protein stability index,"treatment: MLN4924 1 uM, 8 h",3.27 ± 0.3
LDPQPITDEEEGLIWVVGPVLAVV [PTPRD],protein stability index,treatment: DMSO,2.02 ± 0.41
same,protein stability index,"treatment: MLN4924 1 uM, 8 h",2.42 ± 0.27
FHNLRNTLDGYGIHPKSIDLDNYF [NFE2L1],protein stability index,treatment: DMSO,2.31 ± 0.44
same,protein stability index,"treatment: MLN4924 1 uM, 8 h",2.07 ± 0.15
NAGTGLVINQADVRNNRSIIKQLK [PLD5],protein stability index,treatment: DMSO,3.88 ± 0.27
same,protein stability index,"treatment: MLN4924 1 uM, 8 h",3.84 ± 0.11
PGKLFIGGLNTETNEKALEAVFGK [RBMX],protein stability index,treatment: DMSO,3.54 ± 0.35
same,protein stability index,"treatment: MLN4924 1 uM, 8 h",3.69 ± 0.38
DFGDMHSYVRSRKRLREEEAARLF [TRIB1],protein stability index,treatment: DMSO,3.5 ± 0.3
same,protein stability index,"treatment: MLN4924 1 uM, 8 h",3.85 ± 0.45
LKATFSGFTKEQQRLGIPKDPRQW [ETS1],protein stability index,treatment: DMSO,2.75 ± 0.25
same,protein stability index,"treatment: MLN4924 1 uM, 8 h",2.82 ± 0.36
AGLASGLLNQQSLKRSANQMGVSA [MED27],protein stability index,treatment: DMSO,3.62 ± 0.06
same,protein stability index,"treatment: MLN4924 1 uM, 8 h",3.69 ± 0.096
SSRVIAASYDKTVRAWDLETGKLL [WDR88],protein stability index,treatment: DMSO,2.76 ± 0.39
same,protein stability index,"treatment: MLN4924 1 uM, 8 h",3.04 ± 0.29
LSFAHANCTLIISYQKPKEVVVAE [DPCD],protein stability index,treatment: DMSO,2.69 ± 0.84
same,protein stability index,"treatment: MLN4924 1 uM, 8 h",2.79 ± 0.73
SGCDKEALLTGGGSENRNHRLLNM [RNF180],protein stability index,treatment: DMSO,3.58 ± 0.28
same,protein stability index,"treatment: MLN4924 1 uM, 8 h",3.86 ± 0.29
KSVQHVVLQALFYLLDRAVDSFET [PTPN9],protein stability index,treatment: DMSO,3.21 ± 0.38
same,protein stability index,"treatment: MLN4924 1 uM, 8 h",2.58 ± 0.41
VASCMHRQETVDCLKKFNARRKLK [CAMK2A],protein stability index,treatment: DMSO,4.05 ± 0.69
same,protein stability index,"treatment: MLN4924 1 uM, 8 h",4.03 ± 0.26
NDSDHQSSTSPLMEGTPTIKSKKK [VPS39],protein stability index,treatment: DMSO,5.45 ± 0.26
same,protein stability index,"treatment: MLN4924 1 uM, 8 h",5.57 ± 0.25
EGASSQIGRAAGTGFTVNVAWNGP [HDAC6],protein stability index,treatment: DMSO,3.13 ± 0.34
same,protein stability index,"treatment: MLN4924 1 uM, 8 h",3.38 ± 0.29
VFSYFLATDMISIFEPPVRNSGII [EFHC1],protein stability index,treatment: DMSO,3.65 ± 0.91
same,protein stability index,"treatment: MLN4924 1 uM, 8 h",3.14 ± 0.67
EKIDKLEQDMERRKADFKAGKALV [ZC3H15],protein stability index,treatment: DMSO,4.74 ± 0.3
same,protein stability index,"treatment: MLN4924 1 uM, 8 h",4.67 ± 0.23
VKTRLEQEIATYRRLLEGEDAHLT [KRT17],protein stability index,treatment: DMSO,3.62 ± 0.14
same,protein stability index,"treatment: MLN4924 1 uM, 8 h",3.77 ± 0.3
EVLRSEAGIELIIEDDIRPEKQKR [MYBL2],protein stability index,treatment: DMSO,4.21 ± 0.24
same,protein stability index,"treatment: MLN4924 1 uM, 8 h",4.31 ± 0.34

# Reference: the supplement of paper PMC10567573
